B1: Membrane-associated guanylate kinase, WW and PDZ domain-containing protein 3, residues 287 to 329; numbered along this chain, Q5TCQ9 (parent)
chain: MRDETLEPLPKNWEMAYTDTGMIYFIDHNTKTTTWLDPRLCKK

Variants of: B1
Experiment: abundance fitness (aPCA) (normalised: wild type 0, dead -1); higher = more abundant; growth selection in yeast, the domain comes from the species named
Conditions: Homo sapiens

Abundance fitness: each site, then its substitutions
D27: N -0.238; W -1.07; A -0.789; F -0.716; R -1.03; G -0.903; Y -0.119; V -1.01; S -0.644; T -1.08; P -1.12; M -0.766; K -0.98; C -0.403; L -1.11; E -0.266
L36: F -0.088; H -0.037; R -0.013; I -0.07; G -0.144; C -0.099; M -0.001; N -0.121; E -0.097; W -0.061; D -0.183; Q -0.03; T -0.078; V -0.019; Y -0.077; A -0.044
H28: P -0.364; E -0.511; D -0.53; V -0.273; I -0.328; Q -0.306; A -0.323; M -0.386; L -0.379; G -0.275; T -0.214; S -0.28; R -0.164
T32: M -0.071; G -0.357; Y -0.417; K -0.303; C -0.101; D -0.47; V -0.082; Q -0.137; N -0.215; R -0.206; I -0.11; L -0.152; A -0.207; E -0.328; H -0.438; W -0.52; P -0.879
D37: E -0.556; A -0.436; C -0.459
N29: C -0.132; V -0.094; D -0.141; E -0.03; S -0.103; I -0.194; R -0.078; M -0.142; G -0.069; K -0.105; Q -0.089; H -0.248; P -0.525; F -0.152; A -0.074; T -0.051
T30: M -0.21; I -0.423; A -0.116; W -0.572; Q -0.139; C -0.271; L -0.207; G -0.314; P -0.887; K -0.155; S -0.051; D -0.281; E -0.265
K31: T -0.214; Q -0.004; W -0.278; V -0.385; M -0.071; D -0.205; C -0.09; N -0.159; H 0.018; E -0.035; L -0.182; G -0.09; I -0.674; P -0.812; Y -0.369; R -0.017
W35: D -0.359; Y 0.126; I -0.257; V -0.291; M -0.16; H -0.447; L -0.146; S -0.199; N -0.339; F 0.074; R -0.266; C -0.222; G -0.341; Q -0.232; A -0.248; T -0.104; E -0.361; P -0.34
T34: R -0.71; E -0.677; I -1.02; C -0.64; P -0.906; M -0.62; S -0.106; L -1.21; K -0.719; G -0.667; V -0.924; A -0.632; Y -0.982; W -0.743; N -0.661; Q -0.28
I26: R -0.321; S -0.634; W -0.648; Y -0.479; T -0.437
T33: N -0.418; C -0.142; E -0.442; L -0.496; R -0.351; G -0.551; S -0.187; M -0.315; D -0.648; H -0.535; I -0.519; Y -0.447; V -0.298; W -0.445; P -0.684; Q -0.417; F -0.584; K -0.388
